Source: the DeepSol protein solubility set

Assay: soluble on expression in E. coli; label from the status in PepcDB or PDB records

Row | Sequence | soluble on expression in E. coli
1 | MAHHHHHHMPRALRYCRPRRDPDESLLAYLSTKFTYLADAQWRQHIAAGDISVNGETLTDGSYVLRQGDMLRFAPPRSLEPPVDSEHIEVLYEDSTLLVVTKNGNLPVAEGGRYCENTLVEVLRRRGTAAFYTASTRTSFGTTHEDTEKVSDSPTHAGEIVETAARAEGSTAMDASGKGAEIPTSPPSRRRLEDGSHGIFAVGSAPCASVPSPKASTVQQRSSLDLFTVQRLDKETSGVVVLAKNSVSARTLASQLEAQTKGCADAVESRLRERGHAVALSSDAFDELLRLKAQSVHKTYTAVLRGAAPEDHTFVVVNCMDCMAKHPTHSWEAQHTQLKKLKMCCEPVKEMLFSHAAAALPQSPKEQQTRWGRLAVTRIRVLASNKKLGLTCVQVELLTGRSHQIRLHCAAVGYPVLGDKLYTTMTPGREGGATAVSDAVYLERVRREDDPYLPIDDDVSGAGGSSRSGKMWCRRHLLHATRIIFAHPDVSPARLMTFMASPAPFFTADVRFECEEDSLLFSQWLTRAVSRPLERAEASQS | not soluble
2 | GPGSMNHLAGKIHVVQTPEEGRRFSLEQVVLPVLGNGAERLVSPDGKMREASERLAQELQIEGLMKMKAAPPATYRRLVVRPRDFTYCLFDDERGWCWESNNEAPIRPQLWEDQEGIMRQLSPLSVATGKNIIARNGIRGAEQRSHFLKAARRSGMTCVLRMTLPRGSAVTSALREAFQFATLDPGVIFHLLR | not soluble
3 | MGHHHHHHSHMISAHRNLHLPGSSNSPASAFLSSWDYRHVPPCPANVVFLVEMGFLHVGQAGLELPTSDDPPTLASQSAGITGVSHRTWQEFASLTVSQAVLRMLVWGPQFENHCSKLLMASEGDSSLVFFLYPLSNLN | not soluble
4 | MIARYQTPEMARLWSEESRYRMWARVEAYALEAWEALGEVPKGLSARLLAKLEEKPLDGAFARRVAELEAVTRHDLVAFTRALAEWTGDEEVGRYLHLGLTSSDIVDTAQNALLVEALGLVLEELKGVEEALKALALRHKHTPAIARTHGVHAEPTSFGLRFLFFLAAFQRDEERLKRARETIGVAMLSGSVGNYAHVPPEVEAHVASRLGLRPEPLSTQVVPRDRHAEVMAALAILGGNIERVAVELRHLQRTEVLEAQEPFHEGQTGSSSMPHKKNPVGLENLTGVARLLRGYLFPALEDIALWHERDISHSSVERVILPDATTLAHYALRRLKGILEGLEVFEENLARNLDLTRGLVYSQQVLNALIARGLSRNKAYALVQRNALRSWKEGKSFLELLEADPENPLKGKELRALFDPKPFLRHVDAIYARFGL | soluble
5 | MNCRPGCGACCIAISISSPIPGMPRGKPAGVPCVQLRDDMECAIFGRPERPACCSGLRPSDEMCGGDRSHAMTWLARLEQATLPAAENTPHRPPLEHHHHHH | not soluble
6 | MSNYAKEERLTGGNVSSVYRSENTVRRELKPGSEKTHKLLQHLENKGFHYAPKFLGVDEKDREILSFIEGEAGNYPLKEYMRSNDVLKEIAKMLRLYHDAVSDFPLLNDWKPMDHTPNNIEVLCHNDFAIYNIIFNNEKPVGIIDFDVAAPGPRLWDIAYTLYTCVPLSRVYYTESGEAVHYDSPQHADRIKERVKLFVQSYGKNMDEDYLGMVLLRLEGLCTYMKRKAQEGDLNFQRMIDEGHLEHYEKDIKFIRDHRAEWS | not soluble
7 | MGSDKIHHHHHHMTAFSFLGDKYHDHDLFLETLKYALNCEINDLRPEDFPEIRKLPDLVVIGRWNLLDDETPWLKEGDIKILVDYVRSGGKLFVWHSGLARFPESYNGLVGGRFIHHPPQKKVRYYGKDIEFELVDEHYFVDLYSDVEIFLWSESDDGTSIAGWRRRYHNGKILALTPAHSEGLKDQVFRDFLKKVLNTFVNQTSW | not soluble
8 | MGSDKIHHHHHHMSAKKNEIRSKLALLQLATELGSISKACGIMGYSRDSYYRFKKQYETAGERGLKNLSRRKPALKNRVSQAVEDQVIEIALDYPNYGQAKVAELLTARGCAISASGVRTIWVRHNLETKKNRLLALHSKLKQDNNLAPSDQVRIEKLYQLDSNDPIFECLYPGDICVQDTFDLGVISPLGQLYQHTFVDGYSQFAIAVIMPERDSASAAEFLEQTVLPWYATAQGLNINTILTDRGSEFFGKKSQQFSDVLSAHNINHIQMRAYNGPVVNGLAARFQDLAYHEFYEPFLKENKAGSLLDLNQQLANWLYDYNHSHAISGRYTLGKTAAEVLKLTKHLSEASSQCS | not soluble
9 | VGVAVDRDELLGANAPPQGGSFRFYLDGERWEWSDSVARMHGYQPGEVIPTNEILLSHKHPDDQSQVAALFDKMIHAGEPFSSKHRIIDTDRRIHHVIVVGDRMLDENGQVIGTSGYYIDVTETLETDLREFNEALTEAVAGLEKSRAVIEQAKGALMLVYGISSERAFGILTWRSQETNIKLHTLAERFVGALAAEATLPASFRARFDHLLLTAHEYPDEQADHPA | not soluble
10 | MSLAGTFAIAPTPFHDDGKIDDVSIDRLTDFYAEVGCEGVTVLGILGEAPKLDAAEAEAVATRFIKRAKSMQVIVGVSAPGFAAMRRLARLSMDAGAAGVMIAPPPSLRTDEQITTYFRQATEAIGDDVPWVLQDYPLTLSVVMTPKVIRQIVMDSASCVMLKHEDWPGLEKITTLRGFQKDGSLRPLSILCGNGGLFLDFEMERGADGAMTGYCFPDMLVDVVKLSKAGQRDLAHNLFDAHLPLIRYEHQQGVGLSVRKYVLKKRGLLSSSAQRKPGASLTDTAREEVDYLLSRLARVEGHHHHHH | not soluble
11 | MGSDKIHHHHHHMHHIGLTRPYSWGIKNFELITVTEKLNIHIQGQGFPILGLHGHPGSGRSLSVFTNHLSKRYQTIAPDLRGYGTSRFRGNFTMQDHLTDLEALLDRLQIEKCLVLGWSLGGILAMELALRLPQRITGLILVATAARPRGNHPPISWQDNLYTGVAGLLNYIKPGWRWNIETFGKRSLFRYLIQQHTPTAYNYIAREALPAYLQTSPSATRALNSALRLGYNRLADLEQIHCPSLVLAGAQDKHITADSSLETAQHLKQSQWQCYPHTAHLFPWEIPQQVINDIDLWLANNSQVMSN | not soluble
12 | MSLQVFGVSRSGYYNWVQHEPSDRKQSDERLKLEIKVAHIRTRETYGTRRLQTELAENGIIVGRDRLARLRKELRLRCKQKRKFRATTNSNHNLPVAPNLLNQTFAPTAPNQVWVADLTYVATQEGWLYLAGIKDVYTCEIVGYAMGERMTKELTGKALFMALRSQRPPAGLIHHSDRGSQYCAYDYRVIQEQFGLKTSMSRKGNCYDNAPMESFWGTLKNESLSHYRFNNRDEAISVIREYIEIFYNRQRRHSRLGNISPATFREKYHQMAAEGHHHHHH | not soluble
13 | MMQISDTYNQKHSLFNAMNRFIGAVNNMDQTVMVPSLLRDVPLDMEVKDEVHNTIGATNYFSRTDMHGYYILLKSIRNDIEWGVVQGEDRKKDKLSNMEISRLEDGDGEEDLEKQFHYHLSGLHTVLNKLTRKAHILTNRYKEEIGFGSWGH | not soluble
14 | MIVTTAGRTNKEMTDYANEVAAELNASFVKRNDIPVHKLHEQYEQDVLVVGKNRLAIYPKGTEESFFFHPNSAMFRVKRLMRGEHDPFVQATQLERGMTVLDCTLGMASDSIVASYVVGESGKVTGLEGNEYMAYIMENGLKTWSSSVSEIDEAMQRIQVKQTEHFSFLAQCEDNSYDVVYLDPMFEETVIESDGIKGLKHFALYHDITDETIAEAKRVARKRVVLKDHFRSSRFEKHNFYVYKRKSAKFHFGVIDPC | not soluble
15 | SEISRQEFQRRRQALVEQMQPGSAALIFAAPEVTRSADSEYPYRQNSDFWYFTGFNEPEAVLVLIKSDDTHNHSVLFNRVRDLTAEIWFGRRLGQDAAPEKLGVDRALAFSEINQQLYQLLNGLDVVYHAQGEYAYADVIVNSALEKLRKGSRQNLTAPATMIDWRPVVHEMRLFKSPEEIAVLRRAGEITAMAHTRAMEKCRPGMFEYHLEGEIHHEFNRHGARYPSYNTIVGSGENGCILHYTENECEMRDGDLVLIDAGCEYKGYAGDITRTFPVNGKFTQAQREIYDIVLESLETSLRLYRPGTSILEVTGEVVRIMVSGLVKLGILKGDVDELIAQNAHRPFFMAGLSHWLGLDVHDVGVYGQDRSRILEPGMVLTVEPGLYIAPDAEVPEQYRGIGIRIEDDIVITETGNENLTASVVKKPEEIEALMVAARKQ | soluble
16 | MFKYSKDGVSVLTILDTRRAKINGLFPVKVQVVFRRKQKYYSTGKELSKEDWDRLLKAKSQLLMEVRTDIESSFSIIKQQVSELIQKGEFSFEILSIRLGRHTKEINLRTAFELKMKELEDNEQASTYLNYRSALKSLECFGGTNIPLDRITVEWLKHCERFWISNGKSYSSVSIYFRTLKCILNRAVRDGILKESSFPFGKNKYEIPEGHGRKLALTLPEIKRVMSFQDSTNELEEFRDLWFFSYLCNGINFMDLLFLQYSNIVDGEICFIRSKTSRTTKHSKEIRATITPEMWDIIHKWGNPNISPQTYIFKYAKGNEDAFEKIKLVRRIVTKCNRKLKKIAQGTGIAQLTTYTARHSFATVLKRGGAKTSYISESLGHSNLTVTENYLACFEKEERIRNARLLTNFDNKM | not soluble
17 | MNSDPTRERILHGLITLYILKELVKRPMHGYELQKSMFETTGQALPQGSIYILLKTMKERGFVISESSVNEKGQQLTVYHITDAGKKFLCDHSQALQLARKIIDDLLSTVDIIENRN | soluble
18 | GKQKQYLFEARDITSRKLMEDKLYQRESSLRNYYEQQPVMMVTLDSHNRIQEVNRFAQLLLGYEPIEMLGHRLREFYLDDKALFPRQVLLQPSHQVHDVWRREIEYRHADGHSVWVRENIRPLNDSD | not soluble
19 | MKVNILMATYNGEKFLAQQIESIQKQTFKEWNLLIRDDGSSDKTCDIIRNFTAKDSRIRFINENEHHNLGVIKSFFTLVNYEVADFYFFSDQDDVWLPEKLSVSLEAAKHKASDVPLLVYTDLKVVNQELNILQDSMIRAQSHHANTTLLPELTENTVTGGTMMINHALAEKWFTPNDILMHDWFLALLAASLGEIIYLDLPTQLYRQHDNNVLGARTMDKRFKILREGPKSIFTRYWKLIHDSQKQASLIVDKYGDIMTANDLELIKCFIKIDKQPFMTRLRWLWKYGYSKNQFKHQVVFKWLIATNYYNKRLEHHHHHH | soluble
20 | MNGKFDKYEYLQDLMRRRGFAWGSFEIYGGSRGFYDYGPLGATIKRKIERKIREAFIREGFFEIETPDITPEQVFIASGHVEKFVDPVVECKKCGMRFRADHLIEEFLGIDVEGKSAEEMSRIIREHGLKCPECGGELSDVFYFNLMFETYIGPYKDKKAYLRPETAQGIFVNFKRLNAFARNKLPFGVFQIGKAYRNEISPRQGMIRLREFTQAEAEIFFNPNETEHPHFNEVKHEKLKLYPIENQLKELGEVEVTAEEAVKRGYVMNSFFAYYMVMIKKILLDIGIPEDKIRFRQQLPEERAHYSADTWDAEVYSERFGWVECVGLAYRTDYDLSRHMKMSGADLTVMIHYDKPKVVKRIQVSLNMKKVGPKLKADAKKINEIIKSMDQKELEKLVKDLNEKGKVTIEGYELSKEDFIVKEVEEKITGEKIVPHVLEPSFGIDRPFYLLLENSLTVDEDGRIYLKIKKDMAPIEVAVLPLVAKEPLTTIAYEIYRTLQKEGFIVVYDEKDSIGKRYMRYDEIGTPYCVTVDNQTPEDGTVTIRDRDTREQIRVKIEELPRKLKELIFG | soluble
21 | MDNVDFSKDIRDYSGLELAFLGDAIWELEIRKYYLQFGYNIPTLNKYVKAKVNAKYQSLIYKKIINDLDEEFKVIGKRAKNSNIKTFPRSCTVMEYKEATALEAIIGAMYLLKKEEEIKKIINIVIKGELEHHHHHH | soluble
22 | MAQGLIEVERKFAPGPDTEERLQELGATLEHRVTFRDTYYDTSELSLMLSDHWLRQREGSGWELKCPGVTGVSGPHNEYVEVTSEAAIVAQLFELLGSGEQKPAGVAAVLGSLKLQEVASFITTRSSWKLALSGAHGQEPQLTIDLDSADFGYAVGEVEAMVHEKAEVPAALEKIITVSSMLGVPAQEEAPAKLMVYLQRFRPLDYQRLLEAASSGEATGDSAS | soluble
